Experiment [1] addresses T1, cynomolgus monkey CD137 on cells (cynomolgus monkey, UniProt A9YYE7 24-254).
T1 construct: whole, on cells; also called CHO-cynomolgus monkey CD137
As to the kind of experiment: flow cytometry, cellular CD137; cynomolgus monkey CD137. How it is done: CHO cells over-expressing human or cynomolgus monkey CD137 and CHO parental cells were harvested by centrifugation at 1000 g for 3 minutes. The cells were resuspended in ice cold assay buffer at 2*10\hat{ }6/mL and transferred to 96-well V-bottom plate with 100 μL/well. […] The plate was mixed and incubated in the dark for 2 hours at 4° C. The cells were washed 3 times by centrifugation at 1000 g for 3 min and resuspended in ice cold assay buffer containing goat F(ab′)₂ anti-human IgG-Fc (PE), 100 μL/well. The plate was incubated in the dark for another 1 hour at 4° C. The cells were washed 2 times by centrifugation at 1000 g for 3 min and resuspended in ice cold assay buffer containing 2% PFA. The cells were then subjected to the flow cytometer immediately.
Mean fluorescence intensity (MFI) was calculated from the total cell population in the FCM experiments. Graphpad 7.0, “[Agonist] vs. response—Variable slope (four parameters)” was used to plot the binding MFI in dose response and to calculate FCM binding EC₅₀ values.
For orientation: Flow cytometry measures light scatter and fluorescence of single cells or particles in a stream.

For experiment [2], the target named is T2, human FcγRI on CHO-K1 cells (human, UniProt P12314 16-374).
T2 construct: whole, on cells; also called CHO-K1-huFcγRI; CHO-huFcγRIA
The experiment is described as follows: flow cytometry on CHO-huFcγRIA cells, PE anti-human Fc F(ab')2. How it is done: The plate was mixed and incubated in the dark for 2 hours at 4° C. […] The plate was incubated in the dark for another 1 hour at 4° C. The cells were washed 2 times by centrifugation at 1000 g for 3 min and resuspended in ice cold assay buffer containing 2% PFA.

The target of experiment [3] is T3, human FcγRIIIA-Phe158 on CHO-K1 cells (human, UniProt P08637 17-254).
T3 construct: whole, on cells; also called CHO-K1-huFcγRIIIA-Phe158; CHO-huFcγIIIA
The experiment is described as follows: flow cytometry on CHO-huFcγRIIIA cells, PE anti-human Fc F(ab')2. How it is done:
The plate was mixed and incubated in the dark for 2 hours at 4° C.

Experiment [4] has as its target T4, recombinant human CD137 receptor protein (human, UniProt Q07011 24-186).
T4 construct: Coated on ELISA plates; also called recombinant human CD137 protein
As to the kind of experiment: ELISA, clone 3712-IgG1v coated, huCD137 titrated (EC50 is a concentration of the CD137 protein); full sigmoid, plateau about 2.2. On the technique in general: An ELISA detects its analyte on a solid surface through an enzyme-linked reagent.

For a further experiment, the target named is T5, Ly051.
T5 chain: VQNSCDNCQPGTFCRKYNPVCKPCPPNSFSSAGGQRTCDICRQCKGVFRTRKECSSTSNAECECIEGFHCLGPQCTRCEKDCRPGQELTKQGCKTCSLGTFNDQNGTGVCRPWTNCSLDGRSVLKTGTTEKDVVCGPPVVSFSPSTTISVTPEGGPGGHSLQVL
The experiment is described as follows: ELISA, clone 3712-IgG1v coated, CD137 protein titrated (EC50 is a concentration of the CD137 protein); curve only begins to rise: about 0.42 at 100000 ng/mL, no plateau, fit marked ~. The protocol:
The plate was decanted and washed once; assay diluent was added 200 μL/well. After one-hour incubation at room temperature, the plate was washed with PBST one time. CD137 receptor human/mouse chimeras were diluted in assay diluent to 100 or 10 μg/mL, and then a 4-fold serial dilution in assay diluent for 11 points to final concentrations of 100000, 25000, 6250, 1562.5, 390.63, 97.66, 24.41, 6.10, 1.53, 0.38 and 0.095 ng/mL or 10000, 2500, 625, 156.25, 39.06, 9.77, 2.44, 0.61, 0.15, 0.038 and 0.0095 ng/mL. The diluted CD137 receptor was added to the assay plate, 50 μL/well, in duplicate. The plate was incubated one hour at room temperature and then washed three times with PBST. Goat anti-human IgG-H+L HRP conjugated at 1:100,000 20 dilution was added to the plate at 100 μL/well. The plate was then incubated one hour at room temperature followed by washing with PBST four times. The TMB substrate solution was added at 100 μL/well. The color was allowed to develop for 15 minutes, and was stopped with 100 μL/well 2N H2SO4. Absorbance at 450 nm and 620 nm was determined by a Tecan F200 Pro reader.

For a further experiment, the target named is T6, CD137 protein (UniProt Q07011 24-186, limits assumed).
T6 construct: also called CD137 antigen; CD137 receptor
As to the kind of experiment: competition ELISA with CD137L: CD137 receptor coated, antibody titrated, CD137L added; A450-A620 falls from about 1.25 to about 0.64 (midpoint of an inhibition curve, called EC50 in the sheet's table). How it is done:
CD137 receptor was diluted in DPBS to 1 μg/mL, and then coated onto an ELISA plate (Corning, Catalog number: 9018, high binding) with a volume of 50 μL (0.05 μg) per well, and incubated at 4° C. overnight. The plate was decanted and washed once; assay diluent was added 200 μL/well. […] The diluted CD137 receptor was added to the assay plate, 50 μL/well, in duplicate. The plate was incubated one hour at room temperature. […] The plate was incubated one hour at room temperature and then washed three times with PBST. Goat anti-human IgG-H+L HRP conjugated at 1:100,000 20 dilution was added to the plate at 100 μL/well. The plate was then incubated one hour at room temperature followed by washing with PBST four times. The TMB substrate solution was added at 100 μL/well. The color was allowed to develop for 15 minutes, and was stopped with 100 μL/well 2N H2SO4. Absorbance at 450 nm and 620 nm was determined by a Tecan F200 Pro reader.

B1: Clone 3712-IgG1v (IgG1v/kappa) (antibody)
heavy: QVQLVQSGAEVKKPGASVKVSCKASGYTFAGFEMHWVRQAPGQGLEWMGAIDPKTGGTDYNQKFKDRVTMTRDTSISTAYMELSRLRSDDTAVYYCARDLGYFDVWGQGTLVTVSSASTKGPSVFPLAPSSKSTSGGTAALGCLVKDYFPEPVTVSWNSGALTSGVHTFPAVLQSSGLYSLSSVVTVPSSSLGTQTYICNVNHKPSNTKVDKKVEPKSCDKTHTCPPCPAPELLGPSVFLFPPKPKDTLMISRTPEVTCVVVDVEHEDPEVKFNWYVDGVEVHNAKTKPREEQYNSTYRVVSVLTVLHQDWLNGKEYKCKVSNKALPAPIEKTISKAKGQPREPQVYTLPPSREEMTKNQVSLTCLVKGFYPSDIAVEWESNGQPENNYKTTPPVLDSDGSFFLYSKLTVDKSRWQQGNVFSCSVMHEALHNHYTQKSLSLSPGK
light: DIQMTQSPSSLSASVGDRVTITCRASQDIRSNLNWYQQKPGGAVKLLIYYTSRLHSGVPSRFSGSGSGTDYTLTISSLQPEDFATYFCQQSEKLPRTFGGGTKVEIRRTVAAPSVFIFPPSDEQLKSGTASVVCLLNNFYPREAKVQWKVDNALQSGNSQESVTEQDSKDSTYSLSSTLTLSKADYEKHKVYACEVTHQGLSSPVTKSFNRGEC
notes: copies: 2 + 2
Take B1: the EC50 in experiment [1] was roughly 0.3 nM; in experiment [4], 0.0669 µg/mL; with Ly051, roughly 466 µg/mL. The values for the binding result in experiment [2] and in experiment [3] were “no binding (tested: 10 µg/mL)” and “no binding (tested: 100 µg/mL)”, respectively. This molecule also came in with an IC50 with CD137 protein of 0.0643 µg/mL.

As a reminder, the EC50 is the concentration at which the effect is half-maximal. By IC50 is commonly meant the concentration that gives 50% inhibition.
